The source of these data is the nanobody polyreactivity screen of Harvey et al. (2022).

This series in a line: yeast display, Sf9 membrane polyspecificity reagent, FACS + sequencing; frameworks hold sequencing errors. The procedure, abridged: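 Nanobodies from a synthetic yeast display library (Saccharomyces cerevisiae BJ5465), induced 36–48 hours with galactose, were stained 1 hour at 4 °C with 10% biotinylated, detergent-solubilized Sf9 membrane reagent, enriched on streptavidin microbeads, then FACS-sorted. Anti-HA (expression) and streptavidin (reagent binding) fluorescence set low and high (top ~1%) gates. Polyreactivity labels come from the gate of origin. Genes were colony-PCR amplified, MiSeq 2 × 250 sequenced and filtered by CDR length.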
For “QVQLVESGGGLVQAGGSLRLSCAASGRTFYRYAMGWYRQAPGKERELVASISSGGSTDYADSVKGRFTISRDNAKNTVYLQMNSLKPEDTAVYYCNAEIVGFWTSYDYWGQGTQVTVSS”, the “polyreactivity (PSR sort gate)” value is recorded as “low polyreactivity”.

As for “QVQLVESGGGLVQAGGSLRLSCAASGFTFRWYTMGWYRQAPGKERELVASINWSTGSTYYADSVKGRFTISRDNAKNTVYLQMNSLKPEDTAVYYCAATAWYNSYFGLDYWGQGTQVTVSS”, the “polyreactivity (PSR sort gate)” value is reported as “high polyreactivity”.

Take “QVQLVESGGGLVQAGGSLRLSCAASGSTLLYYAMGWYRQAPGKERELVAAISWRGGSTYYADSVTGRFTISRDNAKTTVYLQINSLKPEDTAVYYCARDIRLKGFRYDYWGQGTQVTVSS”: the “polyreactivity (PSR sort gate)” value is “high polyreactivity”.

In the case of “QVQLVESGGGLVQAGGSLRLSCAASGIIFRDYGMGWYRQAPGKESEIVATITYSGGGTYYADSVKGRFTISRDNANNTVYLQMNSLKPEDTAVYYCAAYPFYYDLAYDYWGQGTQVTVSS”, the “polyreactivity (PSR sort gate)” value is “low polyreactivity”.

Regarding “QVQLVESGGGLVQAGGSLRLSCAASGSIFGVNAMGWYRQAPGKERELVAAISSSTGRTYYADSVKGRFTISRDNAKNTVYLQMNSLKPEDTAVYYCAADFTSYRRGWTYGYWGQGTQVTVSS”, the “polyreactivity (PSR sort gate)” value is “high polyreactivity”.

On to “QVQLVESGGGLVQAGGSLRLSCAASGSTLSYYAMGWYRQAPGKEREWVAAISLSVGSTYYADSVKGRFTISRDNAKNTVYLQMNSLKPEETAVYYCAADDFYSGPFRGDYWGQGTQVTVSS”, for which the “polyreactivity (PSR sort gate)” value is recorded as “low polyreactivity”.

In the case of “QVQLEESGGRLVQAGGSLRLSCAASGRTFDGNTMGWYRQAPGKERELVAAITYSGTSTYYADSVKGRFTISRDNAKNTVDVQMNSLKPEDTAVYYCNKPRYYSTYRRYYWGQGTQVTVSS”, the “polyreactivity (PSR sort gate)” value is listed as “high polyreactivity”.

As to “QVQHVDSAGGLVQAGGSLRLSCAASGSTFAPNAMGWYRQAPGKERELVAAISFRGVRTYYADSVKGRFTISRDNAKNTVYLQMNCLKPEDTAVYYCNKRVQRRNKPGAYNYEYWGQGTQVTVSS”, the “polyreactivity (PSR sort gate)” value is given as “high polyreactivity”.

On to “QVQLVESGGGLVQAGGSLRLSCAASGFTFVTYAMGWYRQAPGKERELVAAISSSGRTYYADSVKGRFTISRDNAKNTVYLQMNSLKPEDTAVYYCAVQGAWRSFYYWGQGTQVTVSS”, for which the “polyreactivity (PSR sort gate)” value is “high polyreactivity”.

With “QVHLVESGGGLVQAGGSLRLSCAASGRTFWSYAMGWYRQAPGKERELVAAISWRSGTTYYADSVKGRFTISRDNAKNTVYLQMNSLKPEDTAVYYCNAHSNYRGDYWGQGTQVTVSS”, the “polyreactivity (PSR sort gate)” value is recorded as “high polyreactivity”.

Consider “QVQLVESGGGLVQAGGSLRLSCAASGRTFRCYAMGWDRQAPGKERELVAAITYSVGSTYYADSVKGRLTISRDTAKNTVYLQMNSLKPEDTAVYYCAADSYPYRYRGKYSRLDYCGQGTQVTVSS”, for which the “polyreactivity (PSR sort gate)” value is reported as “low polyreactivity”.

In the case of “QVQLVESGGGLVQAGGSLRLSCASSGRIFRYYAMGWYRQAPGKERELVAAINWSGGSTYYADSVKGRFTISRDNAKNTVYLQMNSLNPEDTAVYYCYRRAYIRYDSSSLDYWGQGTQVTVSS”, the “polyreactivity (PSR sort gate)” value was “low polyreactivity”.

As for “QVQLVESGGGLVQAGVSLRISCAASVRTFSRYTMGWYRPAPGKERELVAANSGDGASTYYADSVKGRFTISRDNAKYSVYLQMYSLKPEDTAVYYCAARGTRYWDYRYYAYNYWGQGTQVTVSS”, the “polyreactivity (PSR sort gate)” value was “high polyreactivity”.

As to “QVQLVESGGGLVQAGGSLRLSCAASGFIFGANAMGWYRQAPGKERELVADINRGSTYYADSVKGRFTISRDNAKNTVYLQMNSLKPEDTAVYYCNRVYTQTFNPWGFEYWGQGTQVTVSS”, the “polyreactivity (PSR sort gate)” value is listed as “high polyreactivity”.

On to “QVQLVESGGGLVQAGGSLRLSCAASGSTFYKYAMGWYRQAAGKERELVASISRSGGSTSYADSVKGRFTISRDNGKNTVYLQMYCLKPEDTAVYYCAATWRQHPGSMGYWGQGTQVTVSS”, for which the “polyreactivity (PSR sort gate)” value is given as “high polyreactivity”.

Take “QVQLVESGGGLVQAGGSLRLSCAASGFIFYTYAIGWYRQAHGKERELVAAISRGGRTNYADSVKGRFTISRDNAKNSVYLQMNSLKPEDPAVYYCPSSYSHRYDYWGQGTQVTVSS”: the “polyreactivity (PSR sort gate)” value is “high polyreactivity”.

As to “QVQLVESGGGLFQAGGSLRLSCAASGRTFQNAMGWYRQAPGKERELVAAISVRGTRTYYADSVKGRFTISRDNAKNTVYLQMNSLKPEDTAVYYCAADRGKATSADDYWGQGTQVTVSW”, the “polyreactivity (PSR sort gate)” value is reported as “high polyreactivity”.

“QVQLVESGGGLVQAGGSLRLSCAASGIIVSYYAMGWYRQAPGKERELVAAITSGGSTNYADSVKGRFTISRDNAKITVYLQMNSLKPEDTAVYYCAAERGDTAYRKYDYWGQGTQVTVSS”: the “polyreactivity (PSR sort gate)” value is “low polyreactivity”.

With “QVQLVESGGGLVQAGGSRRLSCAASGSTFRYYAMGWYRQAPGKERELVAAISKRGGSTYYADSVKGRFTISRDNAKNTVYLQMNSLKPEDTAVYYCAAYGSVGLEYWGQGTQVTVSS”, the “polyreactivity (PSR sort gate)” value was “high polyreactivity”.

As for “QVQLLESGGGLVQAGRSLRLSCAASGRTFRIYAMGWYRQAPGKEREEVAAITRSSGSTFYADSVKGRFTISRDNAKNTVYLQMNSLKPEDTAVYYCAAEYFEWWVTYDYWGQGTQVTVSS”, the “polyreactivity (PSR sort gate)” value was “high polyreactivity”.

“QDQHVESGGGLVQAGGILRLICAASGPIFGYNAMGWYRQEPGQERELVAAINSDGSKNYADSVKGRFTISRDNAKITVYLQMISLKPEDTAVYYCNQLLYPVGDYEFWGQGTQVTVSS”: the “polyreactivity (PSR sort gate)” value is on record as “low polyreactivity”.

For the sequence “QVQLVESGGGLVQAGGSLRLSCAASGRTFSVNVMGWYRQAPGKERELVAAISWSGGNTYYADSVKGRFTISRDNAKNTVYLQMNSLKPEDTAVYYCNTDFADSNYDSSYGYWGQGTQVTVSS”, the “polyreactivity (PSR sort gate)” value is “low polyreactivity”.

Regarding “QVQLVESGGGLVQAGGSLRLSCAASGFTFRRYAMGWYRQAPGKERELVAAISYGGGRTYYAESVKGRFTISRDNAKNTVYLQMNSLKPEDTAVYYCAADVLSRYVGEADYWGQGTQVTVSS”, the “polyreactivity (PSR sort gate)” value is listed as “high polyreactivity”.

For “QVQLEESGGGLVQAGGSLRLSCAASGIIFWYNAMGGSRQAPGKETELVAAISRGGGNTYADSVKGRFTISRDNAKNTVYLQMKSLKEVDTAVYYCAAKRSGYRFNTRWFRLPKYDYWGQGNQVTVSS”, the “polyreactivity (PSR sort gate)” value is “low polyreactivity”.

For “QFQLVDSGGSLVQAGSSLPLSCPASGRTFPYNVMGWYRQAPGKERELFASIDGSGGSTYYADSVKGRFTISRDYAKNTVYLQMNSLNPVDTAVYYCAAVYYQSGNYWYGYLGQSPYDYWGLGTQVTVSS”, the “polyreactivity (PSR sort gate)” value is listed as “low polyreactivity”.

Regarding “QVQLVESGGGLVQAGGSLRLSCAASGGIFGINAMGWYRQAPGKEREFVAAITASGGTTYYADSVKGRFTISRDNAKNTVYLQMNSLKPEDTAVYYCAKRYRSYDYVWYEYWGQGTQVTVSS”, the “polyreactivity (PSR sort gate)” value is listed as “high polyreactivity”.

As to “QVQLVESGGGLVQAGGSLRLSCAASGRTFSWNAMGWYRQAPGKERELVAAISNSGGSTYYADSVKGRFTISRDNAKNTVYLQMNSLKPEDTAVYYCAVYRYYGFSLWYDYWGQGTQVTVSS”, the “polyreactivity (PSR sort gate)” value is “low polyreactivity”.

As to “QVQLVESGGGLVQAGGSLRLSCAASGSIIGVNAMGWYRQAPGKERELVAAISSTGGSTYYADSVKGRFTLSRDNAKNTVYLQMNSLKPEDTAVYSCNTDYSKSIGDGYAGFDYWGQGTQVTVSS”, the “polyreactivity (PSR sort gate)” value is “low polyreactivity”.

“QVQLVEAGGGLVQAGGSLRLSCASSGNTFYPYAMGWYRQAPGKERELVAVITSGTDTYYADSVKARFTISRDNAKNTVYLQMNSLKPEDTAVYYCAASLYWRYGYWGQGTQVTVSS”: the “polyreactivity (PSR sort gate)” value is given as “high polyreactivity”.

On to “QVQLVESGGGLVQAGGSLRLSCAASGIIFRVYAMGWYRQAPGKERELVATITWSGGSTFYADSVKGRFTISRDNAKNPVDLQRNSLTPEDTAVYYCAARGYLRREQLYVLIRYDYWGQGTQVTVSS”, for which the “polyreactivity (PSR sort gate)” value is recorded as “low polyreactivity”.

In the case of “QVQLVESGGGLVQAGGSLRLSCAASGIIFSHYAMGWYRQAPGKERELVAAISSRGGSTYYADSVKGRFTISRDNAKNTVYLQMNSLKPEDTAVYYCNAKWTSHGTYAEDYWGQGTQVTVSS”, the “polyreactivity (PSR sort gate)” value is listed as “high polyreactivity”.

In the case of “QVQLVESGGGLVQAGGSLRLSCAATGGTFYVYAMGWYRQAPGKERELVARITWRGGRTYYADSVKGRFTISRDNAKNTVYLQMYSLKPEDTAVYYCNAEQYSQFDYWGQGTQVTVSS”, the “polyreactivity (PSR sort gate)” value is recorded as “high polyreactivity”.

Turning to “QVQLVESGGGLVQAGGSLRLSCPASGRTMVLNMGCYRHAPGKERELVATINSGGSTYYADSVKGRFTISRDNAKNTVYLQMNSLKPEDTAVYYCAVLSSDGKFDYWGQGTQVTVSS”, the “polyreactivity (PSR sort gate)” value is recorded as “low polyreactivity”.

For the sequence “QVQLVESGGGLVQAGGSLRLICAASGSIFDPYAMGWYRQAPGKERELVAAITYSAARTYYADSVKGRFTISRDNAKNTVYLQMNSLKPEDTAVYYFNRVVRREAERYDYWGQGTQVTVSS”, the “polyreactivity (PSR sort gate)” value is “high polyreactivity”.

Take “QVQLVESGGGLVQAGGSLRLSCAASGITFAFYDMGWYRQAPGKERELVAAISYSGGGTYYADSVKGRFTISRDNAKNTVYLQMNSLKPEDTAVYYCAADPKTHPLFGEDYWGQGTQVTVSS”: the “polyreactivity (PSR sort gate)” value is “low polyreactivity”.

Regarding “QVQLVESGGGLVQAGGSLRLSCAASGSTFRGYAMGWYRQVPGKERELVADISWSGTSTYYADSVKGRFTISRDNAKNTFYLQLNSVIPEDTAVYYCAKGGRDRSRKYYYWGQGTQVTVSS”, the “polyreactivity (PSR sort gate)” value is listed as “high polyreactivity”.

Take “QVQLVESGGGLDQAGGSIRLSCAASGFIYDGNAMGSYRQAPGKERELVAAISSGGGTTYYADSVKGRFTISRDNAKNTVYLQMNSLKPEDTAVYYCADDALSDEYDYWGQGTQVTVSS”: the “polyreactivity (PSR sort gate)” value is “low polyreactivity”.

For “QVQLVESGGGLVQAGGSLRLSCAASGFIFSPNAMGWYRQAPGKEREFVAAIRYSGTSTSYADSVKGRFTISRDNAKNTVYLQMNSLKPEDTAVYYCAAGRSNSYSPRRRVTYGYNYWGQGTQVTVSS”, the “polyreactivity (PSR sort gate)” value is recorded as “high polyreactivity”.

For the sequence “QVQLVESGGGLVQAGGSLRYSCAASGLIFQHNALGWYRPAPGKERELVAAISGSGGSTYYADSVKGRFTISRDNAKNTVYLQMNSLKPEDTAVYYCATDDRYYRRYYWGQGTQVTVAS”, the “polyreactivity (PSR sort gate)” value is recorded as “high polyreactivity”.

For the sequence “QVQLVESGGGLVQAGGSLRLSCAASGLTFKRYAMGWYRQAPGKERELVAGINYSSGSTYYADSVKARFTISRDNAKNTVYLQMNSLKPEDTAVYYCAADGGISAGANSGYDYWGQGTQVTVSS”, the “polyreactivity (PSR sort gate)” value was “high polyreactivity”.

Consider “QVQLVESGGGLVQAGGSLRLSCAASGLTFGSNGMGWYRQAPGKERELVAAISRGGSTSYADSVKGRFTISRDNAKNTVYLQMNSLKPEDTAVYYCAARSYRYSYRYRAFDYWGQGTQVTVSS”, for which the “polyreactivity (PSR sort gate)” value is given as “high polyreactivity”.
